Experimental findings from the nanobody polyreactivity screen of Harvey et al. (2022) are described below.

The series is described as follows: yeast display, Sf9 membrane polyspecificity reagent, FACS + sequencing; frameworks hold sequencing errors. The procedure, abridged:
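Nanobodies came from a synthetic yeast display library in Saccharomyces cerevisiae BJ5465, induced with galactose for 36–48 hours and stained for 1 hour at 4 °C with 10% biotinylated, detergent-solubilized Sf9 membrane reagent. Cells were enriched on streptavidin microbeads and then FACS-sorted, with low and high (top ~1%) gates set on anti-HA fluorescence for expression and streptavidin fluorescence for reagent binding. Each polyreactivity label reflects the gate a clone came from. Genes were amplified by colony PCR, sequenced by MiSeq 2 × 250 and filtered by CDR length.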
As for “QVQLVESGGGLVQAGGSLSLSCAASGSTFYNYAMGWYRQAPGKERELVASITWNGGSTYYADSVKGRFTISRDNAKNTVYLQMNSLKPEDTAVYYCAADWTWTYPYDYWGQGTQVTVSS”, the “polyreactivity (PSR sort gate)” value is listed as “low polyreactivity”.
With “QVQLVESGGGLVQAGGSLSLSCAASGSTYLDYTMGWYIQAPGKERELVAVISYRAGSTYYADSVKGRFTISRDNAKNTVYLLMHSLKPEDTAVYYCNADYYNYWRRRRYVWYESWGQGTQVTVSS”, the “polyreactivity (PSR sort gate)” value is given as “low polyreactivity”.
To “QVQLVESGGGLVQAGGSLSLSCAASGYIFSSNTMGWYRQAPGKERELVAGITASATITYYADSVKGRFTISRDNAKNTVYLQMNSLKPEDTAVYYCAADPVLGVFKFEYWGQGTQVTVSS” belongs “low polyreactivity”.
To “QVQLVESGGGLVQAGGSLSLSCAASGYIFVPYAMGWYRQAPGKERELVAAISWSTGTTYYADSVKGRFTISRDNAKNTVYLQMNSLKPEDTAVYYCAAEGYDWIYLYYGLGYWGQGTQVTVSS” belongs “low polyreactivity”; to “QVQLVESGGGLVQAGGSLSLSCAASVSTSLSYDMGWYRQAPGKERELVASITSSGGSTYYADSVKGRFTIARDNAKNTVYLQMKSLKPEDTAVYYCNARSYIYPFSPTSYYRYYWGQGTQVTVSS”, “high polyreactivity”.
For “QVQLVESGGGLVQAGGSLSLSCAASVYIFLVYAMGWYRQAPGKERELVAAISSGGSTYYADSVKGRFTISRDNAKNTVYLQMNSLKPEDTAVYYCAKAGLALYAFRDDYWGQGTQVTVSS” the value was “low polyreactivity”; for “QVQLVESGGGLVQAGGSLSLSCAATGRIFGPYAMGWYRQAPGKERELVATINSGGSTHYADSVKGRFTISRDNAKNTVYLQMNSLKPEDTAVYYCAATSAYGRYRYYYWGQGTQVTVSS”, “high polyreactivity”; for “QVQLVESGGGLVQAGGSLSLSCASSANIFGVYAKGWYRQPPGKERELVAAIRYSTVSTYYADSVKGRFTISRDNAKNTVYLQLHSLKPEDTAVFYCAAQRRLYLPGHYYYWGQGTQVTVSS”, “high polyreactivity”.
Take “QVQLVESGGGLVQAGGSLSLSCDASGSIFRSNAMGWYRQAPGKERELVAAISRSGGRTYYADSVKGRFTISRDNAKNTVYLQMNSLKPEDTAVYYCAAQVVRSLKYEYWGQGTQVTVSS”: the “polyreactivity (PSR sort gate)” value is listed as “high polyreactivity”.
For “QVQLVESGGGLVQAGGSLSLSFAASGSTFERYAMGWSRQAPGKERELVAAIRASGVRTYYADSVKGRFTISRDNAKNTVNLQMNSLKPEDTAVYYCAAELQRYWGRLYYYWGQGTQVSVSS” the value was “high polyreactivity”; for “QVQLVESGGGLVQAGGSLSLSSAATGSNFGRNAMGWYRQATGKEREFVAAISQRGGRTYYSDSVKGRFTISRDNAKNTVYLQMNSLKPEETAVYYCAATYTRVPNRFYYWGQGTQVTVSS”, “high polyreactivity”.
As for “QVQLVESGGGLVQAGGSPRLSCAASGRTFAEYPMGWYRQAPGKERELVAGISWSGGSTYYADSVKGRFTISRDTAKNTVYLQMNSMKPDDTAVYYCAARGWKRGYYIGHYYYWGQGTQVTVSS”, the “polyreactivity (PSR sort gate)” value is on record as “low polyreactivity”.
To “QVQLVESGGGLVQAGGSPRLSCAASGRTFVFKAMGWYRQAPAKERELVAAITDTTGSTYYADSVKGRFTISRDNAKNTVYLQMNSLKPEDTAVYYCNARVYRPFYYWGQGTQVTVSS” belongs “low polyreactivity”; to “QVQLVESGGGLVQAGGSQRLSCAASGRIFRYYAMGWYRQAPGKERELVAAITWSGGSTYYADSVKGRFTISRDNEKNTVYLQMNSLKPDDTAVYYCTAISYQPFHGDYWGQGTQVTVSS”, “low polyreactivity”; to “QVQLVESGGGLVQAGGSRRIICAASGSIFGYYAMGWYRQAPGKEREFVAAISGRGSSTYYADSVKGRFTISRDNAQNTVYLQMNSLKPEDTAVYYCARVTYKHYGYWGQGTQVTVSS”, “high polyreactivity”.
To “QVQLVESGGGLVQAGGSRRISCAASGIIFTLYVMGWYRQAPGTERELVAAIRSGGSTYYADSVKGRVTISRDNAKNTVYLQMNSLKPEDTAVYYCAARVRSGTGVGFDYWGQGTQVTVSS” belongs “high polyreactivity”.
